In patent US20240166765A1 (ICONIC THERAPEUTICS, published 2024):
Substitutions are numbered along the chain they refer to. Where two headings read alike, the source gives them in different places.

Legend:
cynomolgus TF ECD-His6 = molecular target: T1, cynomolgus TF ECD-His6 (cynomolgus monkey (Macaca fascicularis)); test: BLI (ForteBio Octet)
T1 construct: made in Expi293 cells; also called TF-His; cTF
T1 chain: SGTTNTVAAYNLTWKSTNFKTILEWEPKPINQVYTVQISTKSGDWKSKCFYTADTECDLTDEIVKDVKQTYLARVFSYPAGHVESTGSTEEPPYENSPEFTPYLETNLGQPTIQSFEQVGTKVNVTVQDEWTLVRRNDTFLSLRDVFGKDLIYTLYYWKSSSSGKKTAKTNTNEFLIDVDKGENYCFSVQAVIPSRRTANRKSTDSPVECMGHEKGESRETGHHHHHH

human TF ECD-His6 = molecular target: T2, human TF ECD-His6 (human, UniProt P13726 33-251); test: BLI (ForteBio Octet)
T2 construct: made in Expi293 cells; the entry holds the ECD with the C-terminal TG-His6; also called TF-His; hTF

rabbit TF-His = molecular target: T3, rabbit TF-His (rabbit (Oryctolagus cuniculus), UniProt P24055 33-250); test: SPR (Biacore), antibody captured by anti-human IgG
T3 construct: also called rabbit TF ECD-His
T3 sequence (P24055 other isoform, or with tags, fused parts or gaps): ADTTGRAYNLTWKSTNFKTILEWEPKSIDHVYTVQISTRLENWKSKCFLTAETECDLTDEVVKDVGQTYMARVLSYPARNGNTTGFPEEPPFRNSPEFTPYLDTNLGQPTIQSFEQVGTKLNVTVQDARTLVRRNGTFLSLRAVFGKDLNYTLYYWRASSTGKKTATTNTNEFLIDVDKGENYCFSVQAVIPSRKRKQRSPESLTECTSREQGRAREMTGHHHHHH

pig TF-His = molecular target: T4, pig TF-His (pig (Sus scrofa)); test: SPR (Biacore), antibody captured by anti-human IgG
T4 construct: also called pig TF ECD-His; pTF
T4 chain: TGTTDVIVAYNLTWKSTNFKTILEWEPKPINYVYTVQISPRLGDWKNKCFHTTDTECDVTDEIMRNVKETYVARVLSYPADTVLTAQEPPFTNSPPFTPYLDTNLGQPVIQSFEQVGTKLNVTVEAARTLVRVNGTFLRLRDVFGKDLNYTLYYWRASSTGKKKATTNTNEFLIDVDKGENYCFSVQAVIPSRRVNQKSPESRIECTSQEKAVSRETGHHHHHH

h108-219_r = molecular target: T5, h108-219_r (human/rat chimera); test: live cell staining, flow cytometry
T5 construct: on HEK293 cells
T5 chain: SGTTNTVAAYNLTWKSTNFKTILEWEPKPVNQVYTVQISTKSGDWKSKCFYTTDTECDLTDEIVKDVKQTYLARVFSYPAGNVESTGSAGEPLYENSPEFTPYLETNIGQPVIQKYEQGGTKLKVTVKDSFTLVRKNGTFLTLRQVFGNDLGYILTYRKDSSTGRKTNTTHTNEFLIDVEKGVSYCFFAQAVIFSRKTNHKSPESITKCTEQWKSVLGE

rTF (rat TF) [1] = molecular target: T6, rTF (rat TF) (rat, UniProt P42533 29-252); test: live cell staining, flow cytometry
T6 construct: Expressed on the surface of transfected HEK293 cells

hTF_K149N = molecular target: T7, hTF_K149N (human, UniProt P13726 33-251); test: live cell staining, flow cytometry
T7 construct: on HEK293 cells; not shown: transmembrane and cytoplasmic part of the construct expressed on HEK293 cells
T7 chain: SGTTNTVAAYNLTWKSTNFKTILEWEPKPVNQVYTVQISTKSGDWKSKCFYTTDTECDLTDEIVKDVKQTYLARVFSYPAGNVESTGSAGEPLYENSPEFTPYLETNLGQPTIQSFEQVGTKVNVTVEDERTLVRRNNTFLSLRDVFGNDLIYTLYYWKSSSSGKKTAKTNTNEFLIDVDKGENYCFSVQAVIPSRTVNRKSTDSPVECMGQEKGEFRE

hTF = molecular target: T8, hTF (human, UniProt P13726 33-251); test: live cell staining, flow cytometry
T8 construct: also called human TF; human Tissue Factor

r141-194_h = molecular target: T9, r141-194_h (rat/human chimera, UniProt P42533 29-252); test: live cell staining, flow cytometry
T9 construct: on HEK293 cells

hTF_N171H_T197K = molecular target: T10, hTF_N171H_T197K (human, UniProt P13726 33-251); test: live cell staining, flow cytometry
T10 construct: on HEK293 cells
T10 chain: T7 chain with N149K, N171H, T197K

rTF (rat TF) [2] = molecular target: T6, rTF (rat TF); test: live cell staining, flow cytometry; remark: listed apart in the source
h1-107_r = molecular target: T11, h1-107_r (human/rat chimera); test: live cell staining, flow cytometry
T11 construct: on HEK293 cells
T11 chain: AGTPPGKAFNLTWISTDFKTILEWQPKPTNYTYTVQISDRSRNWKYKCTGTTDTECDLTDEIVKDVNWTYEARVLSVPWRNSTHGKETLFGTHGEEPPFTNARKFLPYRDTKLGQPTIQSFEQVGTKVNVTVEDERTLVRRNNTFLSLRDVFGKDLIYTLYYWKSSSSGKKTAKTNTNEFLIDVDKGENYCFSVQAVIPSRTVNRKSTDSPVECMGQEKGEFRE

h1-77_r = molecular target: T12, h1-77_r (human/rat chimera); test: live cell staining, flow cytometry
T12 construct: Human TF with ECD residues 1-77 replaced by the rat segment; on HEK293 cells

h159-219_r = molecular target: T13, h159-219_r (human/rat chimera); test: live cell staining, flow cytometry
T13 construct: on HEK293 cells

B1: 1G (antibody, human IgG1, V domains shown)
VH: EVQLLESGGGLVQPGGSLRLSCAASGFTFSSYAMAWVRQAPGKGLEWVSAISGSGGLTYYADSVKGRFTISRDNSKNTLYLQMNSLRAEDTAVYYCAKAPYGYYMDVWGKGTTVTVSS
VL: not shown
notes: human IgG1
Kd (cynomolgus TF ECD-His6): 2.7 nM | Kd (human TF ECD-His6): 2.2 nM | binding result (rabbit TF-His): no binding (tested: TF-His titration from 100 nM) | binding result (pig TF-His): no binding (tested: TF-His titration from 100 nM)

B2: 5G9 (antibody, V domains shown)
VH: QVQLVESGGGVVQPGRSLRLSCKASGFNIKDYYMHWVRQAPGKGLEWIGLIDPENGNTIYDPKFQGRFTISADNSKNTLFLQMDSLRPEDTAVYYCARDNSYYFDYWGQGTPVTVSS
VL: DIQMTQSPSSLSASVGDRVTITCKASQDIRKYLNWYQQKPGKAPKLLIYYATSLADGVPSRFSGSGSGTDYTFTISSLQPEDIATYYCLQHGESPYTFGQGTKLEIT
notes: Previously described anti-TF antibody; also called humanized TF8-5G9; CNTO 860
Percent antibody binding to TF construct relative to hTF (h108-219_r): 0%

B3: 29D (antibody, human IgG1, V domains shown)
VH: QVQLVESGGGVVQPGRSLRLSCAASGFTFHSRGMHWVRQAPGKGLEWVAVITYDGINKYYADSVEGRFTISRDNSKNTLYLQMNSLRAEDTAVYYCARDGVYYGVYDYWGQGTLVTVSS
VL: not shown
notes: human IgG1
Kd (cynomolgus TF ECD-His6): 12 nM | Kd (human TF ECD-His6): 3.3 nM | binding result (rabbit TF-His): no binding (tested: TF-His titration from 100 nM) | binding result (pig TF-His): no binding (tested: TF-His titration from 100 nM)

B4: 39A (antibody, human IgG1, V domains shown)
VH: QVQLVQSGAEVKKPGSSVKVSCKASGGTFSSNAIGWVRQAPGQGLEWMGSIIPIIGFANYAQKFQGRVTITADESTSTAYMELSSLRSEDTAVYYCARDSGYYYGASSFGMDVWGQGTTVTVSS
VL: EIVMTQSPATLSVSPGERATLSCRASQSVSSNLAWYQQKPGQAPRLLIYGASTRATGIPARFSGSGSGTEFTLTISSLQSEDFAVYYCEQYNNLPLTFGGGTKVEIK
notes: Human IgG1
Percent antibody binding to TF construct relative to hTF (rTF (rat TF) [1]): 0% | Percent antibody binding to TF construct relative to hTF (hTF_K149N): 131% | Percent antibody binding to TF construct relative to hTF (hTF): 100% | Percent antibody binding to TF construct relative to hTF (r141-194_h): 0% | Percent antibody binding to TF construct relative to hTF (hTF_N171H_T197K): 94% | Percent antibody binding to TF construct relative to hTF (rTF (rat TF) [2]): 0% | Percent antibody binding to TF construct relative to hTF (h1-107_r): 0% | Percent antibody binding to TF construct relative to hTF (h1-77_r): 0% | Percent antibody binding to TF construct relative to hTF (h159-219_r): 141%
